This is an account of results in publication PMC12290104, “PEAK1 maintains tight junctions in intestinal epithelial cells and resists colitis by inhibiting autophagy-mediated ZO-1 degradation” (Nature Communications, 2025).

In test [1] the target is ZO-1 (UniProt Q07157). Put plainly: co-IP of FC-PEAK1, ZO-1 blot. Conditions: reference: FC-PEAK1 wild type; sites Y724.
The target in test [2] is T1, GFP-tagged ZO-1 (human, UniProt Q07157 1-1748).
T1 construct: ZO-1, human cDNA cloned into pTriEx-GFP; last truncation ends at 1748; also called GFP-ZO-1; GFP-tagged ZO-1 (WT); source: HEK293T, transfected, in lysate; also purified from HEK293T (anti-GFP magnetic beads, glycine pH 2.5 elution)
T1 sequence (Q07157 whole entry, the tested form may be a part): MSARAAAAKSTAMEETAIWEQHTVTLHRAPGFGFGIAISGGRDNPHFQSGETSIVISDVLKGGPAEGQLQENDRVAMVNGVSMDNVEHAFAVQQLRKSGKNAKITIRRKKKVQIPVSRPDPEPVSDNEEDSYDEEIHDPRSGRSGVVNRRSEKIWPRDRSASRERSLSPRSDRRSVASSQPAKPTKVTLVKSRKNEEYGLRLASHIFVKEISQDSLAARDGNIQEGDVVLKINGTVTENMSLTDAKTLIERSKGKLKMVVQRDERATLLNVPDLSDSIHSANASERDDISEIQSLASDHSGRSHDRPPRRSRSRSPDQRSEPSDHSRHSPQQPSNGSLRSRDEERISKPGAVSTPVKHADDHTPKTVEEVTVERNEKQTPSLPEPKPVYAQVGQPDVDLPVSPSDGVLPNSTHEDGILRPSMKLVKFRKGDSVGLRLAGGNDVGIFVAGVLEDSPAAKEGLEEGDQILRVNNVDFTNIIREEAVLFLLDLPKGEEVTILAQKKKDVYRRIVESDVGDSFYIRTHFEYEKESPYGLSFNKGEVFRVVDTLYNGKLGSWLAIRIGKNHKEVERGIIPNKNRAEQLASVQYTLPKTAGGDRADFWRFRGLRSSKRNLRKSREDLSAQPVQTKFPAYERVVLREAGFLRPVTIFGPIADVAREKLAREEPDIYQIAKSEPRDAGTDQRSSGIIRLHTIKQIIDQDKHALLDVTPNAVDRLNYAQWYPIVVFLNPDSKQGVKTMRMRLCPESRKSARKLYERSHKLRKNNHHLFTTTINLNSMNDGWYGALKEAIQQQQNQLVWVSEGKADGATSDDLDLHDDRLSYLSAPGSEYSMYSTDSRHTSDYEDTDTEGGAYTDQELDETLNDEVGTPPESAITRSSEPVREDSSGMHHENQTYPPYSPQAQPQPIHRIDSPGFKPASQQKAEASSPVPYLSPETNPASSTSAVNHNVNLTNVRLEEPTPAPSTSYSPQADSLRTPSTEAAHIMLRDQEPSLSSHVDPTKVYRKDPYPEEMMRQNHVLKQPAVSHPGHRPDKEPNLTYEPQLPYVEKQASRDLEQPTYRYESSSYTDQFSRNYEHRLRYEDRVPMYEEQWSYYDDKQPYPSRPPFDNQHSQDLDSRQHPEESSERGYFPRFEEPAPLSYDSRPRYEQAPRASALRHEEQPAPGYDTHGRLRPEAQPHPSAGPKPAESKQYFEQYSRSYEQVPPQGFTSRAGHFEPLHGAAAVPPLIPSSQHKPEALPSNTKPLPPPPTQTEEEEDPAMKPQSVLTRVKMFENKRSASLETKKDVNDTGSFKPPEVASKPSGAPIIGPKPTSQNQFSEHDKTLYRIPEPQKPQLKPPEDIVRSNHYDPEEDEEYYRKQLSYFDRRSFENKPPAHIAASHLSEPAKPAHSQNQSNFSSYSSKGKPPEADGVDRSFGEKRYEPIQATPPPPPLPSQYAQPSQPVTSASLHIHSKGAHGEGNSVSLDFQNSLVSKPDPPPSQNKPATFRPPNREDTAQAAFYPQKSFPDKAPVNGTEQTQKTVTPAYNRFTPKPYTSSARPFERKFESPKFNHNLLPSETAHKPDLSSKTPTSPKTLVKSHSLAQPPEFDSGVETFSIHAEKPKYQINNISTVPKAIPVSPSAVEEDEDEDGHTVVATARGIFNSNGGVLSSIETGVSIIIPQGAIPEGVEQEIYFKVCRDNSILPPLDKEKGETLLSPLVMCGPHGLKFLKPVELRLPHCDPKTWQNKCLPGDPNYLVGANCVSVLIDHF
Put plainly: pull-down; 10 μg FC-tagged PEAK1^WT or PEAK1^Y724F purified from HEK293T held on Protein A Sepharose (blocked with 10% FBS); GFP-tagged ZO-1 at 0, 1, 2 and 4 μg, 4 h, 4 °C; immunoblot. The note with it: both partners purified. (In western blotting, separated proteins are transferred to a membrane and probed.)

On to “PEAK1 (from UniProt Q9H792) FC-PEAK1 Y724F”, for which, in test [1], the “binding against the reference” value is “weaker”.

B1: FC-tagged PEAK1^WT (Fc fusion, human, UniProt Q9H792 1-1746, looked up)
chain: MSACNTFTEHVWKPGECKNCFKPKSLHQLPPDPEKAPITHGNVKTNANHSNNHRIRNTGNFRPPVAKKPTIAVKPTMIVADGQSICGELSIQEHCENKPVIIGWNRNRAALSQKPLNNNNEDDEGISHVPKPYGNNDSAKKMSDNNNGLTEVLKEIAGLDTAPQIRGNETNSRETFLGRINDCYKRSLERKLPPSCMIGGIKETQGKHVILSGSTEVISNEGGRFCYPEFSSGEESEEDVLFSNMEEEHESWDESDEELLAMEIRMRGQPRFANFRANTLSPVRFFVDKKWNTIPLRNKSLQRICAVDYDDSYDEILNGYEENSVVSYGQGSIQSMVSSDSTSPDSSLTEESRSETASSLSQKICNGGLSPGNPGDSKDMKEIEPNYESPSSNNQDKDSSQASKSSIKVPETHKAVLALRLEEKDGKIAVQTEKEESKASTDVAGQAVTINLVPTEEQAKPYRVVNLEQPLCKPYTVVDVSAAMASEHLEGPVNSPKTKSSSSTPNSPVTSSSLTPGQISAHFQKSSAIRYQEVWTSSTSPRQKIPKVELITSGTGPNVPPRKNCHKSAPTSPTATNISSKTIPVKSPNLSEIKFNSYNNAGMPPFPIIIHDEPTYARSSKNAIKVPIVINPNAYDNLAIYKSFLGTSGELSVKEKTTSVISHTYEEIETESKVPDNTTSKTTDCLQTKGFSNSTEHKRGSVAQKVQEFNNCLNRGQSSPQRSYSSSHSSPAKIQRATQEPVAKIEGTQESQMVGSSSTREKASTVLSQIVASIQPPQSPPETPQSGPKACSVEELYAIPPDADVAKSTPKSTPVRPKSLFTSQPSGEAEAPQTTDSPTTKVQKDPSIKPVTPSPSKLVTSPQSEPPAPFPPPRSTSSPYHAGNLLQRHFTNWTKPTSPTRSTEAESVLHSEGSRRAADAKPKRWISFKSFFRRRKTDEEDDKEKEREKGKLVGLDGTVIHMLPPPPVQRHHWFTEAKGESSEKPAIVFMYRCDPAQGQLSVDQSKARTDQAAVMEKGRAENALLQDSEKKRSHSSPSQIPKKILSHMTHEVTEDFSPRDPRTVVGKQDGRGCTSVTTALSLPELEREDGKEDISDPMDPNPCSATYSNLGQSRAAMIPPKQPRQPKGAVDDAIAFGGKTDQEAPNASQPTPPPLPKKMIIRANTEPISKDLQKSMESSLCVMANPTYDIDPNWDASSAGSSISYELKGLDIESYDSLERPLRKERPVPSAANSISSLTTLSIKDRFSNSMESLSSRRGPSCRQGRGIQKPQRQALYRGLENREEVVGKIRSLHTDALKKLAVKCEDLFMAGQKDQLRFGVDSWSDFRLTSDKPCCEAGDAVYYTASYAKDPLNNYAVKICKSKAKESQQYYHSLAVRQSLAVHFNIQQDCGHFLAEVPNRLLPWEDPDDPEKDEDDMEETEEDAKGETDGKNPKPCSEAASSQKENQGVMSKKQRSHVVVITREVPCLTVADFVRDSLAQHGKSPDLYERQVCLLLLQLCSGLEHLKPYHVTHCDLRLENLLLVHYQPGGTAQGFGPAEPSPTSSYPTRLIVSNFSQAKQKSHLVDPEILRDQSRLAPEIITATQYKKCDEFQTGILIYEMLHLPNPFDENPELKEREYTRADLPRIPFRSPYSRGLQQLASCLLNPNPSERILISDAKGILQCLLWGPREDLFQTFTACPSLVQRNTLLQNWLDIKRTLLMIKFAEKSLDREGGISLEDWLCAQYLAFATTDSLSCIVKILQHR
notes: PEAK1, human cDNA cloned into pTriEx-FC; also called FC-PEAK1; FC-PEAK1^WT; source: HEK293T, transfected, in lysate; also purified from HEK293T (protein A sepharose, glycine pH 2.5 elution)
On to B1, for which the binding result in test [2] is reported as “binds”.
